Assay results: patent publication US20030032609A1 (Harvard, published 2003)

Molecular target: T1, aryl hydrocarbon receptor nuclear translocator (ARNT) (human, UniProt P27540 1-789, limits assumed)
T1 construct: also called hARNT
Assay: heterodimer formation by deletion mutant; method not named

T1 sequence (P27540 whole entry): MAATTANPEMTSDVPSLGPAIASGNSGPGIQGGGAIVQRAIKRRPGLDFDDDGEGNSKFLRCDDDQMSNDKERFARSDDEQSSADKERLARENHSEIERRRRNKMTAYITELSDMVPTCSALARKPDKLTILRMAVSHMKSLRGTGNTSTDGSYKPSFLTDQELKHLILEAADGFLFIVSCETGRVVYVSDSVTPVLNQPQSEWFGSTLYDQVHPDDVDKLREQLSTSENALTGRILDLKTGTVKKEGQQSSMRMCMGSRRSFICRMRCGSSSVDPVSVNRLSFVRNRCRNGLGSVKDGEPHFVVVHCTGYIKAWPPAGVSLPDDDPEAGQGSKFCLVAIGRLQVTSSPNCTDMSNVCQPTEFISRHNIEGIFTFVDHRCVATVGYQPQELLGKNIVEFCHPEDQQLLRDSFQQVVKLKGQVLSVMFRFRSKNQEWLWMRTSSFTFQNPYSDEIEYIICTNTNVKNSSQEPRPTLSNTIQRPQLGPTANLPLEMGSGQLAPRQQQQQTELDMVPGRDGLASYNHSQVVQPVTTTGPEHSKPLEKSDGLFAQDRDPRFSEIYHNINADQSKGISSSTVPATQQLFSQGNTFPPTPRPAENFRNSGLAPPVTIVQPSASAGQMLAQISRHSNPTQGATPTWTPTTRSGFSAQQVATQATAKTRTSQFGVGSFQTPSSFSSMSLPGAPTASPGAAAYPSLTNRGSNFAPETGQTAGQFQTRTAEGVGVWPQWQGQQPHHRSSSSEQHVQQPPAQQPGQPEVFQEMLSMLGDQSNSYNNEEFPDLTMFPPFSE

B1: EPAS1 polypeptide lacking amino acids 486-639 of SEQ ID NO: 6 (other)
chain: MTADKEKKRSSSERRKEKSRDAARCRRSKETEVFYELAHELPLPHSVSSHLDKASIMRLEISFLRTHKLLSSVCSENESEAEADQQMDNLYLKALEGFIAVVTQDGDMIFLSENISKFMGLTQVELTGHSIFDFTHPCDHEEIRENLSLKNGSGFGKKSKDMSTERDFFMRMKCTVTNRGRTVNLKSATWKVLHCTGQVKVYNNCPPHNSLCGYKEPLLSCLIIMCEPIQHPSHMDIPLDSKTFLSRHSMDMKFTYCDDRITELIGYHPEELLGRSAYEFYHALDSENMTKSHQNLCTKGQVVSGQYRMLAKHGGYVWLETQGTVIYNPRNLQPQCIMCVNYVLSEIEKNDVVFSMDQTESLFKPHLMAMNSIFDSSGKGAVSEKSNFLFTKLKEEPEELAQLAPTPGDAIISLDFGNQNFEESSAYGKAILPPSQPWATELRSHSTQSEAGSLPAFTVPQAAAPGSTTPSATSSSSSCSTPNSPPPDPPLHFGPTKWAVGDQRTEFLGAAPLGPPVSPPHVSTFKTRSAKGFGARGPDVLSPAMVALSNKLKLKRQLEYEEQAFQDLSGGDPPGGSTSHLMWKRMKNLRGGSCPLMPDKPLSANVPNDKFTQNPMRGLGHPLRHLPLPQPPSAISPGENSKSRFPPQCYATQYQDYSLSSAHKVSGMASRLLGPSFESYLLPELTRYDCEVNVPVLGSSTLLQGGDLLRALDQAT
notes: Internal deletion as worded; The C-terminal end, 870, is derived from '1-690' plus '180 C-terminal amino acids'; also called dominant negative EPAS1 mutant
  binding result: binds
